Positions count from the first letter of the chain named. Like-named read-outs stand apart in the source and are kept apart here.
Columns and labels:
Test in all cases: ELISA
[1] = biological target: T1, recombinant human Axl-Fc protein (R and D Systems, cat N° 154-AL) (UniProt P30530 26-451)
[2] = biological target: T1, recombinant human Axl-Fc protein (R and …); remark: listed apart in the source
[3] = biological target: T1, recombinant human Axl-Fc protein (R and …); remark: listed apart in the source

T1 sequence (P30530 26-451 D266N): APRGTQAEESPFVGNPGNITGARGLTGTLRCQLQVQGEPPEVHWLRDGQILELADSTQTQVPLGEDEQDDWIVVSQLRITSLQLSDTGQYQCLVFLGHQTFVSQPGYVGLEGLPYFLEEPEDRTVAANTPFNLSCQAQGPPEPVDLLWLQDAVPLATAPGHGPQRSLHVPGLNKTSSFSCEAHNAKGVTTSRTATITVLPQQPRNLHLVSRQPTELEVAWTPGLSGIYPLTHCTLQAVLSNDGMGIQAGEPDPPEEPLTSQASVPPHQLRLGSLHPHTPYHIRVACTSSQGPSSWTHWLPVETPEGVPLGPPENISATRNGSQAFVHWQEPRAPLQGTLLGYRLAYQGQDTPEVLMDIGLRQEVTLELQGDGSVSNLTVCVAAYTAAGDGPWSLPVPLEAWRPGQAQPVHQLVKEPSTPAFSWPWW

B1: 110D7 anti-Axl monoclonal antibody (antibody, V domains shown)
VH: EVKLVESGGGLVQPGGSLKLSCATSGFTFSDYYMYWVRQTPEKRLEWVAYISNGGGSTYYPDTVKGRFTMSRDNAKNTLYLQMSRLKSEDTAMYYCARLSFYAMDYWGQGTSVTVSS
VL: DIVMTQSHKFMSTSVGDRVSITCKASQDVTTAVAWYQQKPGQSPKLLIYWASTRHTGVPDRFTGSGSGTDYTLTISSVQAEDLALYYCQQHYRIPFTFGSGTKLEIK
Q: Which EC50 [1] does the source give for B1 here?
A: 1.35 nM

B2: 1024G11 anti-Axl monoclonal antibody (antibody, V domains shown)
VH: EVKLVESGGGLVQPGGSLNLSCAASGFTFSSYSMSWVRQTPEKRLEWVAFISNGGGRTYYPDTVKGRFTFSRDNARNTLYLQMSSLNSEDTAMYFCARGTTESYYAMDYWGQGTSVTVSS
VL: B1 VL with T30I, Y87F, Y92L, R93S, I94T, F96L, S100A, I106L
Q: B2 was tested. Which EC50 [2] did it give?
A: 3.57 nM

B3: 1003A2 anti-Axl monoclonal antibody (antibody, V domains shown)
VH: B2 VH with N19K, S30N, F50Y, V64I, F70L, A75D, N87K, F95Y, M107L
VL: B1 VL with V15L, V19I, T30I, T72N, Y92F, R93S, I94T, F96L, S100A, I106L
Q: How did the EC50 [3] turn out when B3 was run?
A: 2.35 nM
